Measured values as given in patent US20200197547A1 (INSERM INSTITUT NATIONAL DE LA SANT ET DE LA RECHERCHE M …, published 2020).
Blank lines part the entries; values can stand above or below the binder they belong to.

Columns and labels:
[1] = biological target: T1, Mesothelin (MSLN) on MSLN-positive HCC70 human triple negative breast cancer cells (human, UniProt Q13421 296-598); experiment: cell-based or functional assay
[2] = biological target: T2, Human MSLN recombinant protein (R&D systems) (human, UniProt Q13421 296-580, limits assumed); experiment: saturation radioligand binding on plate-immobilized recombinant human MSLN
T2 construct: Bought protein, 100 ng immobilized on immunosorbent plates; also called recombinant MSLN; recombinant human mesothelin
T2 sequence (Q13421 other isoform, or with tags, fused parts or gaps limits assumed): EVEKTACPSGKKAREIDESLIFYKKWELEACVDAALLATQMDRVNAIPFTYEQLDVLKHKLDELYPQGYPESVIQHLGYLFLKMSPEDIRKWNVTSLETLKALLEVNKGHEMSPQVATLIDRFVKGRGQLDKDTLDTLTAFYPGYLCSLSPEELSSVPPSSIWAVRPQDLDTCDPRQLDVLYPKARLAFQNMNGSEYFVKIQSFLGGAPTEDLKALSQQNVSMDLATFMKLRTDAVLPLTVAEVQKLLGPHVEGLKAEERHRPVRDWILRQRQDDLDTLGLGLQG
Experimental: (§1) Human MSLN recombinant protein (100 ng, R&D systems) was immobilized on immunosorbent plates (Corning Costar Stripwell, Sigma Aldrich) overnight at 4° C., and blocked with 1% milk. Serial dilutions of ^99mTc-A1 and ^99mTc-C6 from 1 μM to 0.8 nM were incubated for 1 hour. Unbound activity was removed by 5 serial washes with PBS-Tween 0.1%. The radioactivity in each well was determined using a γ-counter (Wizard², Perkin Elmer). Unspecific binding was determined by incubation of ^99mTC-A1 or ^99mTc-C6 in empty wells. Results were corrected from background and decay, and the [^99mTc-A1] and [^99mTc-C6] binding curves were fitted using a nonlinear regression equation (specific binding: Y=B max*X/(KD+X) with X being the radioligand concentration) and using GraphPad Prism 6 software to determine KD values. Uptake was normalized to the Bmax for graphic representation of 3 independent experiments.

[3] = biological target: T1, Mesothelin (MSLN) on MSLN-positive …; experiment: radioligand binding on cells in suspension, 40 nM 99mTc-A1, 1 h at 4 C, gamma counting
Experimental: (§2) HCC70 and MDA-MB-231 cells were rinsed with PBS, detached using EDTA 5 mM, and resuspended at 200,000 cells per tube. Cells were incubated for 1 hour with PBS-BSA 1% and then with 40 nM of ^99mTc-A1 or 150 nM of ^99mTc-C6 for 1 h at 4° C., in the absence or presence of a 200-fold excess of unlabeled A1 or C6. Cell suspensions were centrifuged at 400 g during 5 min at 4° C., and washed 5-times with cold-PBS. Cells were then transferred to new tubes and radioactivity was determined using a γ-counter (Wizard², Perkin).

[4] = biological target: T2, Human MSLN recombinant protein (R&D …); experiment: saturation radioligand binding on plate-immobilized recombinant human MSLN, gamma counting, nonlinear fit
Experimental: as §1

[5] = biological target: T2, Human MSLN recombinant protein (R&D …); experiment: saturation radioligand binding on recombinant human MSLN (as told in the discussion); value told in the discussion; recombinant human MSLN
Experimental: as §1

[6] = biological target: T1, Mesothelin (MSLN) on MSLN-positive …; experiment: competition on HCC70 cells, 200-fold excess of unlabeled A1 against 40 nM 99mTc-A1 (competitor: 99mTc-A1)
Experimental: as §2

T1 sequence (Q13421 other isoform, or with tags, fused parts or gaps limits assumed): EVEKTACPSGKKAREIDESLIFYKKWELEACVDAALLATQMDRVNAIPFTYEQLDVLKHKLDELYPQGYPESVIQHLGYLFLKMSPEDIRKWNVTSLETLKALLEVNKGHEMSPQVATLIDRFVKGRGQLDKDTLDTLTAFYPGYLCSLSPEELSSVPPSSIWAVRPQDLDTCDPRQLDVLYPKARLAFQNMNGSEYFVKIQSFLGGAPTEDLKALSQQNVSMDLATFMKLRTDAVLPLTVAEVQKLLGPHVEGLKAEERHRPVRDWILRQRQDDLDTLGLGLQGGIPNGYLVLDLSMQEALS

fold affinity against 99mTc-C6 [2]: > 2 fold | Kd [4]: 43.9 nM | Kd [5]: 35 nM
B1: 99mTc-A1 (anti-mesothelin A1 single domain antibody radiolabeled with technetium-99m at its C-terminal hexahistidine tag) (VHH)
VHH: QVQLVQSGGGLVHPGGSLRLSCAASGIDLSLYRMRWYRQAPGKERDLVALITDDGTSYYEDSVKGRFTITRDNPSNKVFLQMNSLKPEDTAVYYCNAETPLSPVNYWGQGTQVTVSH
modifications: 99mTc-tricarbonyl at the C-terminal hexahistidine-tag (His-Tag)
notes: Labeled by the tricarbonyl method; also called radiolabeled A1 nanobody
99mTc-A1 uptake in HCC70 tumors by SPECT quantification, with competition (150-fold excess of unlabeled A1) [1]: 0.6 % ID/g | fold decrease in 99mTc-A1 uptake in HCC70 tumors by SPECT quantification, co-injection of a 150-fold excess of unlabeled A1 [1]: ~7 fold | fold decrease in 99mTc-A1 uptake in HCC70 tumors, ex vivo biodistribution, with excess of unlabeled A1 [1]: ~7 fold | fold binding on HCC70 cells against MSLN-negative MDA-MB-231 cells [3]: 7.9 fold

B2: A1 anti-mesothelin single domain antibody, unlabeled (VHH)
VHH: B1 VHH
notes: Same protein as in m1, without the radiolabel; also called unlabeled A1; A1 nanobody
fold decrease in 99mTc-A1 binding to HCC70 cells [6]: 6 fold
